In experiment [1] the target is HLA-A*11:01. The experiment is described as follows: IEDB peptide-MHC binding, purified MHC/competitive/fluorescence; ≥ and ≤ were set here for values at or beyond the usual limits of such assays.
Experiment [2] addresses HLA-A*03:01. The experiment is described as above.
For experiment [3], the target named is HLA-B*15:01. Described as above.
The target in experiment [4] is HLA-A*02:01. The experiment is described as follows: IEDB peptide-MHC binding, purified MHC/competitive/radioactivity; filed as Kd, often an IC50 or EC50 that approximates it; ≥ and ≤ were set here for values at or beyond the usual limits of such assays.
The target of the next experiment is HLA-A*02:03. Described as above.
A further experiment has as its target HLA-A*02:17. The experiment is described as above.
The target of another experiment is HLA-B*07:02. Briefly: IEDB peptide-MHC binding, purified MHC/direct/fluorescence; filed as Kd, often an IC50 or EC50 that approximates it; ≥ and ≤ were set here for values at or beyond the usual limits of such assays.
The next experiment concerns the target HLA-B*39:01. Described as above. Conditions: source organism: Mycobacterium tuberculosis.
The target of experiment [5] is HLA-A*03:01. The description is as above.
In another experiment the target is HLA-A*01:01. Described as above.
Another experiment deals with HLA-B*57:01. The description is as above.
A further experiment deals with HLA-A*29:02. The experiment is described as above.
Another experiment addresses HLA-B*58:01. The experiment is described as above.
The target of a further experiment is HLA-A*31:01. Described as above.
The target of a further experiment is HLA-B*44:02. Described as above. Conditions: source organism: Mycobacterium tuberculosis.
For experiment [6], the target named is HLA-A*02:01. Briefly: IEDB peptide-MHC binding, purified MHC/competitive/fluorescence; ≥ and ≤ were set here for values at or beyond the usual limits of such assays.
A further experiment concerns the target HLA-A*24:02. Described as above.
The next experiment addresses HLA-B*15:03. Briefly: IEDB peptide-MHC binding, purified MHC/competitive/radioactivity; filed as Kd, often an IC50 or EC50 that approximates it; ≥ and ≤ were set here for values at or beyond the usual limits of such assays. Conditions: source organism: Vaccinia virus WR.
The target in the next experiment is HLA-A*30:01. The experiment is described as above. The settings on record: source organism: Vaccinia virus WR.
Experiment [7] deals with HLA-B*08:01. The experiment is described as above.
Another experiment has as its target HLA-A*32:01. The description is as above. The settings on record: source organism: Vaccinia virus WR.
Experiment [8] has as its target HLA-B*15:01. The experiment is described as above. The settings on record: source organism: Vaccinia virus WR.
The target of the next experiment is HLA-A*02:06. The description is as above.
The next experiment deals with HLA-A*02:02. The experiment is described as above. The settings on record: source organism: Vaccinia virus WR.
Another experiment addresses HLA-B*46:01. Briefly: IEDB peptide-MHC binding, purified MHC/direct/fluorescence; filed as Kd, often an IC50 or EC50 that approximates it; ≥ and ≤ were set here for values at or beyond the usual limits of such assays. Conditions: source organism: West Nile virus.
For experiment [9], the target named is HLA-A*11:01. Described as above. The settings on record: source organism: West Nile virus.
A further experiment has as its target HLA-A*69:01. Described as above. The settings on record: source organism: West Nile virus.
Experiment [10] concerns the target HLA-A*02:01. Described as above. The settings on record: source organism: West Nile virus.
A further experiment addresses HLA-B*18:01. Described as above. The settings on record: source organism: West Nile virus.
The target of experiment [11] is HLA-B*08:01. Described as above. Conditions: source organism: West Nile virus.
For another experiment, the target named is HLA-B*27:05. The description is as above. Conditions: source organism: West Nile virus.
The target of the next experiment is HLA-B*40:01. The experiment is described as above. The settings on record: source organism: West Nile virus.
Where [12] appears, read: source organism: Sudan ebolavirus.
The mark [13] stands for this setting: source organism: Dengue virus 1 Nauru/West Pac/1974.
The mark [14] stands for this setting: source organism: Dengue virus 1 Brazil/97-11/1997.
The mark [15] stands for this setting: source organism: Mycobacterium tuberculosis.
[16] abbreviates: source organism: Vaccinia virus WR.
Setting [17] is: source organism: Camelpox virus M-96.
The mark [18] stands for this setting: source organism: Zaire ebolavirus.
The mark [19] stands for this setting: source organism: Dengue virus 4 Philippines/H241/1956.
Where [20] appears, read: source organism: Dengue virus 1 Singapore/S275/1990.
Where [21] appears, read: source organism: Vaccinia virus.
Setting [22] is: source organism: West Nile virus.
Where [23] appears, read: source organism: Dengue virus 3 China/80-2/1980.
The mark [24] stands for this setting: source organism: Dengue virus 4 Dominica/814669/1981.

Bounds are passed on as bounds.

With GFRSGVPPK, the results for the 50% inhibitory concentration (IC50) in the experiment with HLA-A*11:01 [1] (setting [12]), in the experiment with HLA-A*03:01 [2] (setting [12]) and with HLA-B*15:01 [3] (setting [12]) were 3210 nM, 3790 nM and not below 92.3 µM, respectively.

GLAMGIMML: the dissociation constant Kd with HLA-A*02:01 [4] (setting [13]) was found to be 77.6 nM; with HLA-A*02:03 (setting [14]), 0.67 nM; in the experiment with HLA-A*02:17 (setting [13]), 15000 nM.

As for SQAFNTPAL, the Kd was not below 20 µM with HLA-B*07:02 (setting [15]); 30.8 nM with HLA-B*39:01; not below 20 µM with HLA-A*03:01 [5] (setting [15]); not below 20 µM with HLA-A*01:01 (setting [15]); not below 20 µM with HLA-B*57:01 (setting [15]); not below 20 µM with HLA-A*29:02 (setting [15]). Also, the Kd in the experiment with HLA-B*58:01 (setting [15]), with HLA-A*31:01 (setting [15]) and with HLA-B*44:02 was not below 20 µM each time.

Consider KINQIIHDF, for which the figures for the concentration for half-maximal inhibition (IC50) with HLA-A*02:01 [6] (setting [12]), in the experiment with HLA-B*15:01 [3] (setting [12]) and with HLA-A*24:02 (setting [12]) were not below 78600 nM, 27.2 µM and 0.969 µM, respectively.

As to KTINALVYF, the Kd turned out to be 22.7 nM in the experiment with HLA-B*15:03; 131 nM with HLA-A*30:01; 17100 nM with HLA-B*08:01 [7] (setting [16]); 8.73 nM with HLA-A*32:01; 0.366 nM in the experiment with HLA-B*15:01 [8]; 0.784 µM with HLA-B*57:01 (setting [17]). The sequence further gave a Kd in the experiment with HLA-B*58:01 (setting [17]) of 0.0453 µM.

On to SQIITLTAF, for which the Kd with HLA-B*15:03 is 0.791 nM; with HLA-A*30:01, 16400 nM; with HLA-B*08:01 [7] (setting [16]), not below 40600 nM; with HLA-A*32:01, 1200 nM; with HLA-B*15:01 [8], 1.01 nM.

Turning to LMTMNIVNF, the dissociation constant (Kd) in the experiment with HLA-B*15:03 was found to be 16.5 nM; in the experiment with HLA-A*32:01 it was 6530 nM.

As for WQSVGHMMV, the figures for the IC50 in the experiment with HLA-A*02:01 [6] (setting [18]) and with HLA-B*15:01 [3] (setting [18]) were 1540 nM and 4.76 µM, respectively.

With ILTILTIIGL, the Kd came to 18.5 nM with HLA-A*02:01 [4] (setting [19]) and 456 nM with HLA-A*02:17 (setting [19]).

VLFVVTLIPL: the dissociation constant (Kd) was found to be 57 nM with HLA-A*02:01 [4] (setting [19]) and 3110 nM with HLA-A*02:17 (setting [19]).

In the case of AMLDVDLHPA, the Kd is 7.08 nM with HLA-A*02:06 (setting [13]), 5.66 nM in the experiment with HLA-A*02:01 [4] (setting [13]), 2.03 nM with HLA-A*02:03 (setting [13]) and 1100 nM with HLA-A*02:17 (setting [13]).

As for HLIMFEQYF, the Kd with HLA-B*15:03 was 45.5 nM.

Take LQKLAQHSI: the dissociation constant (Kd) in the experiment with HLA-B*15:03 worked out at 243 nM.

As to ISASDMQKF, the Kd in the experiment with HLA-B*15:03 was 812 nM.

As to LAVLFINSI, the Kd in the experiment with HLA-B*15:03 amounted to 191 nM.

As for QQFYWPVMN, the IC50 was determined as 8000 nM in the experiment with HLA-A*02:01 [6] (setting [18]) and 34 µM with HLA-B*15:01 [3] (setting [18]).

In the case of FLGEDGCWYG, the Kd with HLA-A*02:01 [4] (setting [19]) is 52.4 nM; with HLA-A*02:17 (setting [19]) it was 1050 nM.

As for CAVNTPVSM, the Kd worked out at 1520 nM with HLA-A*02:06 (setting [16]), 43 nM with HLA-B*15:03, 15700 nM with HLA-A*02:03 (setting [16]) and 6.27 µM with HLA-A*02:02.

VLMLVAHYAI: the Kd with HLA-A*02:01 [4] (setting [20]) worked out at 97.4 nM; with HLA-A*02:17 (setting [20]), 1830 nM.

Take ALLGAMTAGI: the figures for the Kd in the experiment with HLA-A*02:01 [4] (setting [19]), in the experiment with HLA-A*02:03 (setting [19]) and in the experiment with HLA-A*02:17 (setting [19]) were 25.3 nM, 58.8 nM and 126 nM, respectively.

In the case of LLFGIKCIK, the IC50 was 734 nM with HLA-A*11:01 [1] (setting [21]), 914 nM with HLA-A*02:01 [6] (setting [21]), 770 nM with HLA-A*03:01 [2] (setting [21]) and not below 229 µM in the experiment with HLA-B*15:01 [3] (setting [21]).

On to LVKTESWIL, for which the Kd in the experiment with HLA-B*07:02 (setting [22]), in the experiment with HLA-B*46:01, in the experiment with HLA-A*11:01 [9], with HLA-A*69:01, in the experiment with HLA-A*02:01 [10] and with HLA-A*03:01 [5] (setting [22]) was not below 20 µM each time. Further, the Kd is not below 20 µM in the experiment with HLA-A*01:01 (setting [22]); not below 20 µM with HLA-B*18:01; not below 20 µM with HLA-B*57:01 (setting [22]); 1890 nM with HLA-B*08:01 [11]; not below 20 µM with HLA-A*29:02 (setting [22]); not below 20 µM in the experiment with HLA-B*58:01 (setting [22]). In addition, the Kd in the experiment with HLA-B*27:05, in the experiment with HLA-B*40:01 and with HLA-A*31:01 (setting [22]) was not below 20 µM in each case.

Consider CMSNSRLSF, for which the Kd in the experiment with HLA-B*15:03 came out at 1.03 nM.

For LFLDIECHF, the Kd was determined as 47.3 nM in the experiment with HLA-B*15:03; 19 nM with HLA-A*30:01; 1120 nM with HLA-B*08:01 [7] (setting [16]); 3440 nM in the experiment with HLA-A*32:01; 547 nM with HLA-B*15:01 [8].

CLMMMLPATL: the dissociation constant Kd in the experiment with HLA-A*02:03 (setting [23]) was 6.85 nM; in the experiment with HLA-A*02:17 (setting [23]) it was 253 nM; with HLA-B*08:01 [7] (setting [23]), 60.5 nM.

With GLFPQLSAI, the half-maximal inhibitory concentration (IC50) with HLA-A*02:01 [6] (setting [18]) turned out to be 431 nM; with HLA-B*15:01 [3] (setting [18]) it was 10.3 µM; with HLA-A*24:02 (setting [18]), 8.03 µM.

As to ELMRRGDLPV, the equilibrium dissociation constant (Kd) with HLA-A*02:03 (setting [14]) worked out at 139 nM; with HLA-A*02:17 (setting [19]) it was 19900 nM.

For ILHSDYQLF, the dissociation constant (Kd) with HLA-B*15:03 was 2.43 nM.

As to TLLCLIPTV, the Kd with HLA-A*02:06 (setting [24]) came to 3.44 nM; with HLA-A*02:17 (setting [24]), 151 nM.

Broadly, the IC50 is the concentration that gives 50% inhibition. Broadly, the Kd is a measure of binding affinity in units of concentration.

(Values after the Immune Epitope Database (IEDB).)
